Experimental data: US20070010658A1 (published 2007)
Positions count from the first letter of the chain named.

B1: TN-2-B (trimeric) (designed binder)
chain: EPPTQKPKKIVNAKKDVVNTKMFEELKSRLDTLAQEVALLKEQQALQTVCLKGTKVHMKCFLAFTQTKTFHEASEDCISRGGTLSTPQTGSENDALYEYLRQSVGNEAEIWLGLNKVRSRYFWMDMTGTRIAYKNWETEITAQPDPTNNENCAVLSGAANGKWFGKRCRDQLPYICQFGIV
notes: also called trimeric version of TN3-2-B
B2: TN-2-D (trimeric) (designed binder)
chain: B1 chain with M124I, T147N, N149R
notes: also called trimeric version of TN3-2-D
B3: TN-2-C (trimeric) (designed binder)
chain: B1 chain with M124V, N149R, G165D
notes: also called trimeric version of TN3-2-C
B4: TN3-2-B (monomeric) (designed binder)
chain: ALQTVCLKGTKVHMKCFLAFTQTKTFHEASEDCISRGGTLSTPQTGSENDALYEYLRQSVGNEAEIWLGLNKVRSRYFWMDMTGTRIAYKNWETEITAQPDPTNNENCAVLSGAANGKWFGKRCRDQLPYICQFGIV
notes: Purified monomer from the E. coli periplasm (pBAD) for SPR
B5: TN3-2-D (monomeric) (designed binder)
chain: B4 chain with M80I, T103N, N105R
notes: as for B4
B6: TN3-2-C (monomeric) (designed binder)
chain: B4 chain with M80V, N105R, G121D
notes: as for B4

Assays:
TNF alpha [1] = molecular target: T1, TNF alpha (UniProt P01375 77-233, limits assumed); assay: SPR (BIAcore 3000), TNF alpha captured by immobilised antibody AHC3712, binder injected
T1 construct: also called tumour necrosis factor; TNFSF2
Protocol: (§1) Surface plasmon resonance (SPR) binding analysis was performed on a BIAcore 3000 instrument (BiaCore, Sweden). TNF alpha capture antibody (AHC3712, Biosource International) to be immobilized was dissolved in 10 mM NaAcetate pH 5.0 and then immobilized on a CM5 BiaCore sensor chip using the Amine Coupling kit (BiaCore, Sweden).
(§2) Binding analysis was performed at a flow rate of 5 μl/min. Before loading of the protein sample, the chip was equilibrated in 10 mM Tris pH 8.0, 150 mM NaCl, 2 mM CaCl₂, 50 μM EDTA and 0.005% Surfactant P20. TNF alpha was dissolved in 10 mM Tris pH 8.0, 150 mM NaCl, 2 mM CaCl₂ at 10 μg/mL and 10 μL was injected. Aliquots (20 μl) of TNF alpha binders in monomeric or the trimeric format were injected using the KINJECT option. Five min of dissociation were allowed before the chip was regenerated with 10 mM Glycine pH 2.5. Binding of TNF alpha binders was tested at six different protein concentrations, ranging from 1 to 200 nM. Binding data were evaluated using the BIAevaluation program version 3.2 (BiaCore).

TNF alpha [2] = molecular target: T1, TNF alpha; assay: SPR; off rate of the trimer against monomeric TN3-2-B
Protocol: as §1, §2

TNF alpha [3] = molecular target: T1, TNF alpha; assay: SPR; fold increase in affinity of the trimer over monomeric TN3-2-B
Protocol: as §1, §2

TNF alpha [4] = molecular target: T1, TNF alpha; assay: SPR; fold increase in affinity of the trimer over monomeric TN3-2-D
Protocol: as §1, §2

TNF alpha [5] = molecular target: T1, TNF alpha; assay: SPR; fold increase in affinity of the trimer over monomeric TN3-2-C
Protocol: as §1, §2

T1 sequence (P01375 77-233 limits assumed): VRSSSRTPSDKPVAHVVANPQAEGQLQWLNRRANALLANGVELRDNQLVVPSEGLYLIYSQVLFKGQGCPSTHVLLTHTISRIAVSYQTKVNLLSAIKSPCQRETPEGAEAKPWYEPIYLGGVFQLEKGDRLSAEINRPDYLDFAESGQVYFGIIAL

Binder	Kd (TNF alpha [1]) [nM]	koff (TNF alpha [1]) [s⁻¹]	kon (TNF alpha [1]) [M⁻¹ s⁻¹]	fold improvement of off value (TNF alpha [2]) [fold]	Fold increase (TNF alpha [3]) [fold]	Fold increase (TNF alpha [4]) [fold]	Fold increase (TNF alpha [5]) [fold]
B1	~0.24	0.000736	3.02e+06	> 1000	304		
B2	4.1	0.00207	506000			12	
B3	4	0.00353	884000				37
B4	73	0.923	1.4e+07				
B5	50	0.0185	364000				
B6	150	0.022	134000				
